Source: US20230303681A1

Biological target: mouse TMEM106B (mouse) (UniProt Q80X71)
Assay: FACS Neuro2a

| MFI | Substance |
| --- | --- |
| 220 | Negative ctrl #1 (antibody) |
| 216 | Negative ctrl #3 (antibody) |
| 235 | Negative ctrl #2 (antibody) |
